Measurements as given in article PMC4306385 (Archives of biochemistry and biophysics, 2014).

Target: wild-type cardiac actin (ACTC), filaments (UniProt P68032 1-377)
Experiment: co-sedimentation

B1: N-terminal C0C2 fragment of cardiac myosin binding protein-C (cMyBP-C) (domain or fragment)
chain: MPEPGKKPVSAFNKKPRSAEVTAGSAAVFEAETERSGVMVRWQRDGSDITANDKYGLAAEGKRHTLTVRDASPDDQGSYAVIAGSSKVKFDLKVTEPAPPEKAESEVAPGAPEEVPAPATELEESVSSPEGSVSVTQDGSAAEHQGAPDDPIGLFLMRPQDGEVTVGGSIVFSARVAGASLLKPPVVKWFKGKWVDLSSKVGQHLQLHDSYDRASKVYLFELHITDAQTTSAGGYRCEVSTKDKFDSCNFNLTVHEAIGSGDLDLRSAFRRTSLAGAGRRTSDSHEDAGTPDFSSLLKKRDSFRRDSKLEAPAEEDVWEILRQAPPSEYERIAFQHGVEACHRPLKRLKGMKQDEKKSTAFQKKLEPAYQVNKGHKIRLTVELADPDAEVKWLKNGQEIQMSGSKYIFESVGAKRTLTISQCSLADDAAYQCVVGGEKCSTELFVKEP
B1 was tested, and the Kd was 5.02 µM and the “stoichiometry N” value was 0.76 mol/mol actin.
